# Experimental data published in the DeepSol protein solubility set.
# Test: soluble on expression in E. coli; label from the status in PepcDB or PDB records
row,Sequence,soluble on expression in E. coli
1,MKQRPKEYYEQLEELQAVDFTLVELTLYLDTHPTDYQAIQQFNQLAQKRKQLKKQFEAAYGPLEQFGHSYSNYPWNWDDTPWPWQV,not soluble
2,MKQSKIIVAGIGPGSEQDITPAVLAAVREADVVVGYKYYFRFIRDFVRPDAECIDTGMKRERARAEQAFEYAEQGKTVCVISSGDAGIYGMTPLIYEMKRERQSNVEIIALPGISAFQKAASLLGAPIGHDFCVISLSDLMTPWERIERRILAAAQADFVTAVYNPKSDGRYWQIYRLREIFLREGRSPETPVGYVRQAGREEQEIHITTLAAFDPETVDMFTVVLIGNSQTYTFNQNIITPRGYYRETRSEATGIGQDIMIRSFRTIETELKNRDIPLDRKWALLHAIHTTADFEMERLLYTDPNAVASLYDAIRTGNLRTIVTDVTMAASGIRKGALQRLGVEVKCYLNDERVAEMATSKGITRTQAGIRLAVEEHPDALFVFGNAPTALMELCDLIRKEKAQPAGIVAAPVGFVHVEESKHMTKPFTHIPKLIVEGRKGGSNLAATLVNAILCYPDAEQLRPGRDV,soluble
3,MKQTVLLLFTALFLSGCSVASADDSVPRFTEEGKYIGSADPHTIAVSLNGEETMIQVPKDKRDECESLPDQTHVLVKYTKKDNGTLQLEDIQLRKTS,soluble
4,MKRAAFYTLGCKVNQYETEAISEMFEKAGYKIVDFEDEADVYVINTCTVTNLSDRKSRQMIRRAKRNNENSIVIVIGCYAQTAPEEVSKIEGVNLVVGTKDRSRILEYLKELETSGGRRNYVGDIMKTREFEELGVNVYKERTRAFIKIQEGCNQFCTYCIIPYARGPVRSRSEENILKEVSGLAHSGYKEVVLTGIHVASYGKDIKNTSLIDIIRKVHEIEGIERIRLGSIEPTTVTEEFVRAIKGMEKLCPQFHISLQSGCDSTLKRMNRKYTTKEYLRSVELLRENLKDVAVTTDVMVGFPGETDEEFNETCRFVEKVLFARMHVFKYSRRKGTPAASYPDQVAPQKKEERSRILIELASRMTLEYNKSFTGRVLPVLFEQEVKGKEGFMEGLTPNYIRVECKGDKDIEGQILNVLLREAKDDYIVGEIVN,soluble
5,MKRAFIMVLDSFGIGATEDAERFGDVGADTLGHIAEACAKGEADNGRKGPLNLPNLTRLGLAKAHEGSTGFIPAGMDGNAEVIGAYAWAHEMSSGKDTPSGHWEIAGVPVLFEWGYFSDHENSFPQELLDKLVERANLPGYLGNCHSSGTVILDQLGEEHMKTGKPIFYTSADSVFQIACHEETFGLDKLYELCEIAREELTNGGYNIGRVIARPFIGDKAGNFQRTGNRHDLAVEPPAPTVLQKLVDEKHGQVVSVGKIADIYANCGITKKVKATGLDALFDATIKEMKEAGDNTIVFTNFVDFDSSWGHRRDVAGYAAGLELFDRRLPELMSLLRDDDILILTADHGCDPTWTGTDHTREHIPVLVYGPKVKPGSLGHRETFADIGQTLAKYFGTSDMEYGKAMF,not soluble
6,MKRFLLSLLALTTLVGCNSKDDNTPTPAKPLSEQQQAYLPTKKVKRISCTYIDEGTTSNTNSPNSYLEAELYNQTYTLRTAEYLYEYDNMGRINKVTIKQERKPEDVRTFTYKDYSVIITAPYDTEVNGQYDIQAVEYGLNAAGNTLGFGMYNEKQQLKSVGDEIITWENDNITKIISKDDREGNKILETVLTYYNNENKNKFNVFSFDFSRESRSFMNYFEMPIALIIGASPKNLPKKVVIPSSRYNGEIENKIIELTYTFDNDGFVKNISENEYLRTGTSVGAYYQNSSYGDIDATTMSNTLQDLMTKIDNGTVTGKSYKIINNKQNERVIQFTIPIKVEKDSNGKPLNLIVDKICEYTFRYITENNQKKLSQIEMNITFKPHLVTHYELNY,not soluble
7,MKRGKGEKKATKSRDGSGQVVPLTEPVVTATGMVGTRSWIGGLFTRSNRRQDKAVDYTLSPLQEERLQRLQDRMVVPFDETRPDHQESLKALWNVAFPNVHLTGLVTEQWKEMGWQGPNPSTDFRGCGFIALENLLFSARTYPVNYSLLLKQRGDRAKWEYPFAVAGINISFMLIQMLDLQNNQDERAFDVLYCIAFAMMDAQWLAMHASYMEFNEVLQATRNQLERELSLDDIHRIQDLPAYNLLFQ,soluble
8,MKRLIGILLCNLFILTACSASVDKTSNSTKTTDYKIENGETLKVPEKPKRVAVLTGFYVGDFIKLGIKPIAVSDITKDSSILKPYLKGVDYIGENDVERVAKAKPDLIVVDAMDKNIKKYQKIAPTIPYTYNKYNHKEILKEIGKLTNNEDKAKKWIEEWDDKTRKDKKEIQSKIGQATASVFEPDEKQIYIYNSTWGRGLDIVHDAFGMPMTKQYKDKLQEDKKGYASISKENISKYAGDYIFLSKPSYGKFDFEKTHTWQNIEAVKKGHVISYKAEDYWFTDPITLEHLRSKLKKEILNKK,not soluble
